# Results: PMC4980427, “Ctf4 Links DNA Replication with Sister Chromatid Cohesion Establishment by Recruiting the Chl1 Helicase to the Replisome” (Molecular Cell, 2016)
# Target: the molecule itself
# Assay: negative-stain single-particle EM of reconstituted assemblies; purified Ctf4 core, GINS and Chl1 mixed in equimolar amounts; reconstituted assemblies on silver-stained gel and two-dimensional class averages
protein,measurement,value
"Ctf4 (residues 471–927) (domain or fragment, S. cerevisiae, UniProt Q01454 471-927, looked up, Ctf4 C-terminal trimerization core that contains the CIP box acceptor, residues 471-927; also called Ctf4 C-terminal trimerization core; Ctf4 core; source: E. coli, overexpressed, purified) TGKFRYMPFSPAGTPFGFTDRRYLTMNEVGYVSTVKNSEQYSITVSFFDVGRFREYHFEDLFGYDLCFLNEKGTLFGQSKTGQIQYRPHDSIHSNWTKIIPLQAGERITSVAATPVRVIVGTSLGYFRSFNQFGVPFAVEKTSPIVALTAQNYRVFSVHYSQFHGLSYSLSELGTSSKRYYKRECPLPMSLPNINSDMKKDANLDYYNFNPMGIKSLFFSSYGDPCIFGSDNTLLLLSKWRSPEESKWLPILDSNMEIWKMSGGKETTDIHVWPLALAYDTLNCILVKGKHIWPEFPLPLPSEMEIRMPVFVKSKLLEENKAILNKKNEIGADTEAEEGEEDKEIQIPVSMAAEEEYLRSKVLSELLTDTLENDGEMYGNENEVLAALNGAYDKALLRLFASACSDQNVEKALSLAHELKQDRALTAAVKISERAELPSLVKKINNIREARYEQQLK",stoichiometry N,3
